Experimental data taken from US20190352664A1, “COMPOSITIONS AND METHODS FOR CONTROLLING GENE EXPRESSION” (priority 2017, published 2019).

Experiments:
dual luciferase reporter = assay: Dual luciferase assay (LUC/RLUC), transient expression; format: in vivo, N. benthamiana; settings: 5′ leader sequence reporters
LUC, GFPER, TBF1-YFP = assay: Transient expression of uORF-controlled LUC, GFPER and TBF1-YFP; format: in vivo, N. benthamiana
LUC reporter = format: in vivo, Oryza sativa cultivar ZH11
Arabidopsis = assay: Ribo-seq and RNA-seq global translatome profiling (translational efficiency TE, mORF/uORF ribo-shift) upon elf18 treatment; format: in vivo; settings: translational efficiency fold change, elf18 vs Mock; listed as shows 5′ UTR of the transcript

B1: ZIK3: R-motif-dependent gene; 5′ leader sequence tested in dual luciferase reporter (nucleic acid, listed as Arabidopsis thaliana)
DNA: ACTTGTTTCCTTATATATTCTTCTCCCTTTAAACATTTAATCTTTTCCTCTTCTACCATCTCCACAAATTCCAAACATCTCTCTCTCTTTCTCTCTCACACACAAAATTGCAGAAGAAGAAGAGTC
modifications: listed as DNA, chemistry not fully specified
Q: For B1, which “TE when PAB2 was co-expressed” value (dual luciferase reporter) is on record?
A: Its value is “lower TE”.

B2: BET10: R-motif-dependent gene; 5′ leader sequence tested in dual luciferase reporter (nucleic acid, listed as Arabidopsis thaliana)
DNA: TTAGGGACGGGACACTAGAGAAGGGAGGGCAGAGAGCGATTTTGTTCTCTCTCTACTTCTCGGTCGTCTTCTTCGTCTCCACTCTAGGGTTTTACTCTATCTTCTTCTTCATCATCATCTTCTACACCAATCTCTAGCGTTAATCTGTTTCTGCTGGAGAAGATTTACGCTTGTTCCTCGGTTCTCTTACTTCTGCTCCGGTTCGATCGCTTGCTAAGTGTTTCGAGTTGGTTCGCACTTCGGTGGGCGATATC
Q: Which “TE when PAB2 was co-expressed” value (dual luciferase reporter) does the source give for B2 here?
A: The value was “lower TE”.

B3: uORFsTBF1: 5′ leader sequence of TBF1 with two pathogen-responsive upstream open reading frames (nucleic acid)
DNA: TCTAGAAACAGCATCCGTTTTTATAATTTAATTTTCTTACAAAGGTAGGACCAACATTTGTGATCTATAAATCTTCCTACTACGTTATATAGAGACCCTTCGACATAACACTTAACTCGTTTATATATTTGTTTTACTTGTTTTGCACATACACACAAAAATAAAAAAGACTTTATATTTATTTACTTTTTAATCACACGGATTAGCTCCGGCGAAGTATGGTCGTCGTCTTCATCTTCTTCCTCCATCATCAGATTTTTCCTTAAATGGAAGAAACCAAACGAAACTCCGATCTTCTCCGTTCTCGTGTTTTCCTCTCTGGCTTTTATTGCTGGGATTGGGAATTTCTCACCGCTCTCTTGCTTTTTAGTTGCTGATTCTTTTTCCTTCGACTTTCTATTTCCAATCTTTCTTCTTCTCTTTGTGTATTAGATTATTTTTAGTTTTATTTTTCTGTGGTAAAATAAAAAAAGTTCGCCGGAG
Q: B3 was tested. Which “suppression of cytosol-synthesized LUC and ER-synthesized GFPER” value (LUC, GFPER, TBF1-YFP; 35S promoter, vs mutant uorfs (ATG to CTG)) did it give?
A: The value was “largely suppress”.

Q: What about the mRNA levels (LUC, GFPER, TBF1-YFP; LUC and GFPER) of the same molecule?
A: The mRNA levels was “without significantly affecting mRNA levels”.

Q: What about the “cell death induced by overexpression of TBF1 (TBF1-YFP)” value (LUC, GFPER, TBF1-YFP; vs 35S:uorfsTBF1-TBF1-YFP) of the same molecule?
A: Its value is “tight enough to prevent cell death”.

Q: What about the “translation of the LUC reporter in rice” value (LUC reporter; 35S:uORFsTBF1-LUC vs 35S:uorfsTBF1-LUC) of the same molecule?
A: The value was “could suppress translation of the reporter in rice”.

Q: What about the “LUC mRNA levels in rice” value (LUC reporter; in vivo) of the same molecule?
A: Its value is “without significantly influencing mRNA levels”.

B4: AT1G59700.1: 5′ UTR of transcript; glutathione S-transferase TAU16 (nucleic acid)
DNA: ATTGTGTGGTGACAAGCAACACATGATATGTCCGTTTAGAAACAGACAAAATAAGAAGAAGAAGAAAGAGTCGTGGAGGATTCTTCATTCTTCCTCATCCTCTTCTTCACCGATTCATTAGAAACCAAATTACAAAAAAAAACGTCTATACACAAAAAAACAA
Q: B4 was tested. Which “score (TE change)” value (Arabidopsis) did it give?
A: The value was “TEdown (389 genes displayed decreased TEfc (|z|≥1.5))”.
